Reference: article PMC8007706, “Structural and functional analysis of LIM domain-dependent recruitment of paxillin to αvβ3 integrin-positive focal adhesions” (Communications Biology, 2021)

Key:
[1] = target: T1, His-tagged talin-head (talin 1–405 aa), N-tagged version (UniProt P26039 1-405); test: BLI; Octet RED384; biotinylated MBP-LIMs immobilised on streptavidin sensor (biocytin quench); His-tagged talin head in solution at 20, 80, 320, 1250 and 5000 nM; PBS with 1% BSA, 0.1% Tween-20, 0.05% sodium azide; 27 °C, 1000 rpm; biotinylated free MBP sensor subtracted; apparent affinity; conditions: both partners purified
T1 construct: talin 1, residues 1–405 (head domain); also called TH; N-tagged talin; not shown: His tag, N-terminal, kept

[2] = target: T2, His-tagged talin-head (talin 1–405 aa), C-tagged version (UniProt P26039 1-405); test: as above; conditions: both partners purified
T2 construct: talin 1, residues 1–405 (head domain); also called TH; C-tagged talin; not shown: His tag, C-terminal, kept
T2 sequence (P26039 1-405): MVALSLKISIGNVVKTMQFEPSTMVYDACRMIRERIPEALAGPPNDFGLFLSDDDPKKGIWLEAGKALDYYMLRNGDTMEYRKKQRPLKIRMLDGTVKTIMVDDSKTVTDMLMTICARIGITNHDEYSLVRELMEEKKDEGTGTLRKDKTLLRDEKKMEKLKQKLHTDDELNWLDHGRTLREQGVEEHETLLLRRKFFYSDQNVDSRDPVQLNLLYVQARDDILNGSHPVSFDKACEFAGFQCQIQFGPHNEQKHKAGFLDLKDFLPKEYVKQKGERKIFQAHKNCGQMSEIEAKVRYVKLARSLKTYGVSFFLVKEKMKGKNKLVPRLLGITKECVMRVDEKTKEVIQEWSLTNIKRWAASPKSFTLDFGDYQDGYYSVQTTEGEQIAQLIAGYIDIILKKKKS

T1 sequence (P26039 1-405): as above

B1: biotinylated MBP-LIMs (domain or fragment, human, UniProt P49023-2 317-557, looked up)
chain: ATVAKGVCGACKKPIAGQVVTAMGKTWHPEHFVCTHCQEEIGSRNFFERDGQPYCEKDYHNLFSPRCYYCNGPILDKVVTALDRTWHPEHFFCAQCGAFFGPEGFHEKDGKAYCRKDYFDMFAPKCGGCARAILENYISALNTLWHPECFVCRECFTPFVNGSFFEHDGQPYCEVHYHERRGSLCSGCQKPITGRCITAMAKKFHPEHFVCAFCLKQLNKGTFKEQNDKPYCQNCFLKLFC
modifications: biotin (EZ-Link NHS-PEG4-Biotin)
notes: paxillin LIM1-LIM4, human paxillin α; limits as told for the LIMs construct (from residue 317), the MBP constructs being 'analogously produced'; numbered according to P49023-2; also called MBP-tagged and biotinylated LIM domains (LIMs)
B1 was tested, and the Kd [1] was 720 nM and the Kd [2] was 770 nM.
